Reference: IntAct's records for PubMed 15350218

B1: Synaptotagmin-2 (Rattus norvegicus (Rat)), P29101 (parent)
chain: MRNIFKRNQEPIVAPATTTATMPLAPAAPADNSTESTGTGESQEDMFAKLKDKFFNEINKIPLPPWALIAMAVVAGLLLLTCCFCICKKCCCKKKKNKKEKGKGMKNAMNMKDMKGGQDDDDAETGLTEGEGEGEEEKEPENLGKLQFSLDYDFQANQLTVGVLQAAELPALDMGGTSDPYVKVFLLPDKKKKYETKVHRKTLNPAFNETFTFKVPYQELGGKTLVMAIYDFDRFSKHDIIGEVKVPMNTVDLGQPIEEWRDLQGGEKEEPEKLGDICTSLRYVPTAGKLTVCILEAKNLKKMDVGGLSDPYVKIHLMQNGKRLKKKKTTVKKKTLNPYFNESFSFEIPFEQIQKVQVVVTVLDYDKLGKNEAIGKIFVGSNATGTELRHWSDMLANPRRPIAQWHSLKPEEEVDALLGKNK

Variants of: B1
Details: with wnk1_rat Wnk1, Q9JIH7
wnk1_rat Wnk1, Q9JIH7, sequence (Q9JIH7 whole entry): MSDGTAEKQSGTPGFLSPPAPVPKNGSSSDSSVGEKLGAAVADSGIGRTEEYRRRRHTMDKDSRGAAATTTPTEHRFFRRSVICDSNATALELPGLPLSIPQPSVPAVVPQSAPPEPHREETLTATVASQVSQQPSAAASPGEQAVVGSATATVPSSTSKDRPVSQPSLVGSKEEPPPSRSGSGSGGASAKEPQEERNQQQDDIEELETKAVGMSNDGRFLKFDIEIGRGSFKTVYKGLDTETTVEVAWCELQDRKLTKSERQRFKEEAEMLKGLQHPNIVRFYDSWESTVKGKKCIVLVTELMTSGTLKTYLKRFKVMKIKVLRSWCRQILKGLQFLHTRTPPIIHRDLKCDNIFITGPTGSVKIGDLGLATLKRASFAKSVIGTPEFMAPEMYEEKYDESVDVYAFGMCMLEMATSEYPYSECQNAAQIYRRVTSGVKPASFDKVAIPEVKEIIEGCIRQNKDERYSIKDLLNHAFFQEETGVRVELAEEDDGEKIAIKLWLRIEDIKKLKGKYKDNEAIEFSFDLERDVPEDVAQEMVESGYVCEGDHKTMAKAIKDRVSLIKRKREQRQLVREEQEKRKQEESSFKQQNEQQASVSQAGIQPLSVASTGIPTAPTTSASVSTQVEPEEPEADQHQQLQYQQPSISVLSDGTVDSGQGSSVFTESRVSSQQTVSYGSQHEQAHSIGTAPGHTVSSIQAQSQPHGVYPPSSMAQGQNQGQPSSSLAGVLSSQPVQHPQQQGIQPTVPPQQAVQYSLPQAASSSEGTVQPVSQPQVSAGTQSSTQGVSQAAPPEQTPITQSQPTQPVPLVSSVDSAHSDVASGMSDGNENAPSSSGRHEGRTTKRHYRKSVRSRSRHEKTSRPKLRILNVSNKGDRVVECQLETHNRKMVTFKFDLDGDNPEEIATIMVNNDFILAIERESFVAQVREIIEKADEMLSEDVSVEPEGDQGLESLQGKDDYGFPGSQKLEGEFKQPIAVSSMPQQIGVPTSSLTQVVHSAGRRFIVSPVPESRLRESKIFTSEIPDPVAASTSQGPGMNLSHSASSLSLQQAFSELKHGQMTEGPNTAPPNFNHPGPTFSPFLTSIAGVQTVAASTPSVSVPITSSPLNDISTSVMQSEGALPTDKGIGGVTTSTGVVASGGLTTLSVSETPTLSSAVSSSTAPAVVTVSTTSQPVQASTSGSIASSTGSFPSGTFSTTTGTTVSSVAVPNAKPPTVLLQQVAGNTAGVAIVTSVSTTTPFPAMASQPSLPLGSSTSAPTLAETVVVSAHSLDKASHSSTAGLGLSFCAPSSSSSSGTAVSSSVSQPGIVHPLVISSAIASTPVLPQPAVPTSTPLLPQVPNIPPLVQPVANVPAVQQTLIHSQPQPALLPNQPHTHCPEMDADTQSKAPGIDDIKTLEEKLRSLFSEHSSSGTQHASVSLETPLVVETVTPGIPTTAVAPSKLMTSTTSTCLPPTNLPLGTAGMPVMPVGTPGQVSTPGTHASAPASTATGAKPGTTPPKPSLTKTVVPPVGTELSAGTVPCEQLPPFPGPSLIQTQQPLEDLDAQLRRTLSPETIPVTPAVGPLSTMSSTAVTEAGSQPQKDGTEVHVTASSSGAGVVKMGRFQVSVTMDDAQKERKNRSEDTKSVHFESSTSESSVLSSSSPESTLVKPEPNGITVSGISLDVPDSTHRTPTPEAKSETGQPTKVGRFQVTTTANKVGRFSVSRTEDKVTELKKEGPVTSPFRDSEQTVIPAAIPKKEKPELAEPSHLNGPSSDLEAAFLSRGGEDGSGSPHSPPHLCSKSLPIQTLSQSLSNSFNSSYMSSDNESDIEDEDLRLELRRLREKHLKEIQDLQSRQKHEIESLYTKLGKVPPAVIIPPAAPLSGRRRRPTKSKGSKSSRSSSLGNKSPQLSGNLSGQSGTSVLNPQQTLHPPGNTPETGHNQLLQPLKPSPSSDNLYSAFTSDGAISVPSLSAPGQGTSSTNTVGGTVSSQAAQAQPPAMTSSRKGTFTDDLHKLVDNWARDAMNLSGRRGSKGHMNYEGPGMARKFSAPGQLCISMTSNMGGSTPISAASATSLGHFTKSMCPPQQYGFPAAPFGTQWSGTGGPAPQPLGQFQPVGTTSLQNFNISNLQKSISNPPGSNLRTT

Variant | effect of a mutation on the interaction
MRNIFKRNQEPIVAPATTTATMPLAPAAPADNSTESTGTGESQEDMFAKLKDKFFNEINKIPLPPWALIAMAVVAGLLLLTCCFCICKKCCCKKKKNKKEKGKGMKNAMNMKDMKGGQDDDDAETGLTEGEGEGEEEKEPENLGKLQFSLDYDFQANQLTVGVLQAAELPALDMGGTSDPYVKVFLLPDKKKKYETKVHRKTLNPAFNETFTFKVPYQELGGKTLVMAIYSFDRFSKHDIIGEVKVPMNTVDLGQPIEEWRDLQGGEKEEPEKLGDICTSLRYVPTAGKLTVCILEAKNLKKMDVGGLSDPYVKIHLMQNGKRLKKKKTTVKKKTLNPYFNESFSFEIPFEQIQKVQVVVTVLDYDKLGKNEAIGKIFVGSNATGTELRHWSDMLANPRRPIAQWHSLKPEEEVDALLGKNK [D231S] | decreasing interaction

Variants of: B1
Details: with wnk1_rat Wnk1, Q9JIH7
Remark: another data set of the same source

Variant | effect of a mutation on the interaction
MRNIFKRNQEPIVAPATTTATMPLAPAAPADNSTESTGTGESQEDMFAKLKDKFFNEINKIPLPPWALIAMAVVAGLLLLTCCFCICKKCCCKKKKNKKEKGKGMKNAMNMKDMKGGQDDDDAETGLTEGEGEGEEEKEPENLGKLQFSLDYDFQANQLTVGVLQAAELPALDMGGTSDPYVKVFLLPDKKKKYETKVHRKTLNPAFNETFTFKVPYQELGGKTLVMAIYDFDRFSKHDIIGEVKVPMNTVDLGQPIEEWRDLQGGEKEEPEKLGDICTSLRYVPTAGKLTVCILEAKNLKKMDVGGLSNPYVKIHLMQNGKRLKKKKTTVKKKTLNPYFNESFSFEIPFEQIQKVQVVVTVLDYDKLGKNEAIGKIFVGSNATGTELRHWSDMLANPRRPIAQWHSLKPEEEVDALLGKNK [D310N] | decreasing interaction
